Measurements reported in patent US20100292083A1 (Ablynx, published 2010).

Biological target: T1, human IL6R (human, UniProt P08887 20-358, limits assumed)
T1 construct: Antigen of the Biacore experiments; the construct is not described (biotinylated IL6R from Peprotech was used for the selections)
T1 sequence (looked up): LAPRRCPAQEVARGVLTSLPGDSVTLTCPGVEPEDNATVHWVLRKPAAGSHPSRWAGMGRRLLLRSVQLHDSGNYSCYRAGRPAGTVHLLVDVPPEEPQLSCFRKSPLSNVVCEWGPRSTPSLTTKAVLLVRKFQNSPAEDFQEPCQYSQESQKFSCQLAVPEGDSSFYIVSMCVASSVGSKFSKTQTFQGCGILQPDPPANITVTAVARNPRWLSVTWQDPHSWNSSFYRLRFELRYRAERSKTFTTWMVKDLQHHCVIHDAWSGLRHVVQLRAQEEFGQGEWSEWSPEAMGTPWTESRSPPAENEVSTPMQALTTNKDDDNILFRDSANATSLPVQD
Assay: SPR (Biacore), periplasmic extract

B1: 32C9PMP2_C9 (VHH, name in Kabat numbering)
VHH: EVQLVESGGGLVQAGGSLRLSCAASGFTFDDYDIGWFRQAPGKGREGVSGISSSDGNTYYADSVKGRFTISSDNAKNTLYLQMNSLKAEDTAVYYCAREPPDSSWYLDGSPEFFKYWGQGTLVTVSS
notes: Humanized 32C9 variant
binding result: no binding

B2: 32C9PMP1_B11 (VHH, name in Kabat numbering)
VHH: EVQLVESGGGLVQAGGSLRLSCAASGFTFSDYDIGWFRQAPGKGREGVSGISSSDGNTYYADSVKGRFTISRDNAKNTVYLQMNSLKAEDTAVYYCAREPPDSSWYLDGSPEFFKYWGQGTQVTVSS
notes: Humanized 32C9 variant
binding result: no binding

B3: 32C9PMP1_E2 (VHH, name in Kabat numbering)
VHH: EVQLVESGGGLVQAGGSLRLSCAASGFTFSDYDIGWVRQAPGKGREGVSGISSSDGNTYYADSVKGRFTISRDNAKNTLYLQMNSLKAEDTAVYYCAREPPDSSWYLDGSPEFFKYWGQGTLVTVSS
notes: Humanized 32C9 variant
binding result: no binding

B4: 32C9PMP1_A11 (VHH, name in Kabat numbering)
VHH: EVQLVESGGGLVQPGGSLRLSCAASGFTFSDYDIGWVRQAPGKEREWVSGISSSDGNTYYADSVKGRFTISSDNAKNTVYLQMNSLKAEDTAVYYCAREPPDSSWYLDGSPEFFKYWGQGTLVTVSS
notes: Humanized 32C9 variant
binding result: no binding

B5: 32C9PMP1_D7 (VHH, name in Kabat numbering)
VHH: EVQLVESGGGLVQPGGSLRLSCAASGFTFDDYDIGWVRQAPGKEREWVSGISSSDGNTYYADSVKGRFTISRDNAKNTLYLQMNSLKAEDTAVYYCAREPPDSSWYLDGSPEFFKYWGQGTLVTVSS
notes: Humanized 32C9 variant
binding result: no binding

B6: 32C9PMP1_F9 (VHH, name in Kabat numbering)
VHH: EVQLVESGGGLVQPGGSLRLSCAASGFTFSDYDIGWFRQAPGKEREWVSGISSSDGNTYYADSVKGRFTISRDNAKNTVYLQMNSLKAEDTAVYYCAREPPDSSWYLDGSPEFFKYWGQGTLVTVSS
notes: Humanized 32C9 variant
binding result: no binding

B7: 32C9PMP1_A4 (VHH, name in Kabat numbering)
VHH: EVQLVESGGGLVQPGGSLRLSCAASGFTFDDYDIGWFRQAPGKEREWVSGISSSDGNTYYADSVKGRFTISSDNAKNTLYLQMNSLRPEDTAVYYCAREPPDSSWYLDGSPEFFKYWGQGTQVTVSS
notes: Humanized 32C9 variant
binding result: no binding

B8: 32C9PMP1_D5 (VHH, name in Kabat numbering)
VHH: EVQLVESGGGLVQPGGSLRLSCAASGFTFDDYDIGWVRQAPGKGREGVSGISSSDGNTYYADSVKGRFTISSDNAKNTLYLQMNSLRPEDTAVYYCAREPPDSSWYLDGSPEFFKYWGQGTLVTVSS
notes: Humanized 32C9 variant
binding result: no binding

B9: 32C9PMP1_G3 (VHH, name in Kabat numbering)
VHH: EVQLVESGGGLVQPGGSLRLSCAASGFTFSDYDIGWFRQAPGKGREGVSGISSSDGNTYYADSVKGRFTISRDNAKNTLYLQMNSLRPEDTAVYYCAREPPDSSWYLDGSPEFFKYWGQGTQVTVSS
notes: Humanized 32C9 variant
binding result: no binding

B10: 32C9PMP1_A3 (VHH, name in Kabat numbering)
VHH: EVQLVESGGGLVQAGGSLRLSCAASGFTFSDYDIGWVRQAPGKGREGVSGISSSDGNTYYADSVKGRFTISRDNAKNTVYLQMNSLKAEDTAVYYCAREPPDSSWYLDGSPEFFKYWGQGTQVTVSS
notes: Humanized 32C9 variant
binding result: no binding

B11: 32C9PMP1_B4 (VHH, name in Kabat numbering)
VHH: EVQLVESGGGLVQPGGSLRLSCAASGFTFSDYDIGWFRQAPGKGREGVSGISSSDGNTYYADSVKGRFTISSDNAKNTLYLQMNSLKAEDTAVYYCAREPPDSSWYLDGSPEFFKYWGQGTQVTVSS
notes: Humanized 32C9 variant
binding result: no binding

B12: 32C9PMP1_A2 (VHH, name in Kabat numbering)
VHH: EVQLVESGGGLVQPGGSLRLSCAASGFTFDDYDIGWVRQAPGKEREWVSGISSSDGNTYYADSVKGRFTISSDNAKNTVYLQMNSLKAEDTAVYYCAREPPDSSWYLDGSPEFFKYWGQGTLVTVSS
notes: Humanized 32C9 variant
binding result: no binding
